Values of other authors in PMC7248566.

Target: Fibrinogen beta (Fgβ) (Homo sapiens) (UniProt P02675)

For SdrG (from UniProt Q9KI13), the Kd is listed as 350 nM.
